In paper PMC8708908:

Target: EcDsbB (Escherichia coli DsbB) (E. coli (endogenous in E. coli JCB817)) (UniProt P0A6M2)
Sequence of UniProt P0A6M2 (P0A6M2 whole entry): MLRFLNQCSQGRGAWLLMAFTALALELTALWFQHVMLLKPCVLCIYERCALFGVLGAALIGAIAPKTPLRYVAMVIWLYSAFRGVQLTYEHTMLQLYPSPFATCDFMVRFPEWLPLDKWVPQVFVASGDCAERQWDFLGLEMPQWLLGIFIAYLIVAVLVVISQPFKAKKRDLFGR

CjDsbA2 made in E. coli with the E. coli pelB signal sequence (ss'pelB-cjdsbA2 in pMPM-A6, pUWM1523) (enzyme)
redox state of CjDsbA2 (AMS labelling, Western blot) in E. coli JCB817 (ΔdsbA, with EcDsbB); in JCB818 (ΔdsbAΔdsbB) mostly in the reduced form (87%) (% oxidized form): 33
